Test results taken from IntAct's records for PubMed 18046461.

B1: Mitogen-activated protein kinase 8 (Rattus norvegicus (Rat)), P49185 (parent)
chain: MSRSKRDNNFYSVEIADSTFTVLKRYQNLKPIGSGAQGIVCAAYDAILERNVAIKKLSRPFQNQTHAKRAYRELVLMKCVNHKNIIGLLNVFTPQKSLEEFQDVYIVMELMDANLCQVIQMELDHERMSYLLYQMLCGIKHLHSAGIIHRDLKPSNIVVKSDCTLKILDFGLARTAGTSFMMTPYVVTRYYRAPEVILGMGYKENVDLWSVGCIMGEMVCLKILFPGRDYIDQWNKVIEQLGTPCPEFMKKLQPTVRTYVENRPKYAGYSFEKLFPDVLFPADSEHNKLKASQARDLLSKMLVIDASKRISVDEALQHPYINVWYDPSEAEAPPPKIPDKQLDEREHTIEEWKELIYKEVMDLEERTKNGVIRGQPSPLGAAVINGSQHPVSSPSVNDMSSMSTDPTLASD
partner: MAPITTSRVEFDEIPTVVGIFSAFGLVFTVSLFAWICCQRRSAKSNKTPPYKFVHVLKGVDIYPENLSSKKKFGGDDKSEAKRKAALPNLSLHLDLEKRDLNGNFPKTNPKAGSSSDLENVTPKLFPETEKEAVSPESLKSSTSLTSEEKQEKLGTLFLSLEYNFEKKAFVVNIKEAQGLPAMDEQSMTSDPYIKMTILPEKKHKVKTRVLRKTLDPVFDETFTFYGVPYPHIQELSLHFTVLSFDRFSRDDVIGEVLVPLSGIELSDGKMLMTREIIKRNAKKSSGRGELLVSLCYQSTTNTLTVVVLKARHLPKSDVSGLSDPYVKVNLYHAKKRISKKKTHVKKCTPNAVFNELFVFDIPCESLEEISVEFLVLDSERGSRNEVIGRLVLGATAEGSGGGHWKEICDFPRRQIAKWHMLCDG
B2: Mitogen-activated protein kinase 8 (Rattus norvegicus (Rat)), P49185 (parent)
chain: B1 chain

Tests used:
[1] = variants of: B1; conditions: with syt4_rat Syt4, P50232
[2] = variants of: B1; conditions: with syt4_rat Syt4, P50232; remark: listed apart in the source
[3] = variants of: B1; conditions: with syt4_rat Syt4, P50232; remark: listed apart in the source
[4] = variants of: B2; conditions: with jun_rat Jun
[5] = variants of: B2; conditions: with jun_rat Jun; remark: listed apart in the source

| Variant | effect of a mutation on the interaction [1] | effect of a mutation on the interaction [2] | effect of a mutation on the interaction [3] | effect of a mutation on the interaction [4] | effect of a mutation on the interaction [5] |
| --- | --- | --- | --- | --- | --- |
| E331N | disrupting interaction | decreasing interaction |  |  |  |
| D162T | disrupting interaction |  | decreasing interaction |  |  |
| D162T |  |  |  | disrupting interaction |  |
| E329N |  |  |  | disrupting interaction | decreasing interaction |
| D326N |  |  |  | disrupting interaction | decreasing interaction |

Other lines, results leading:

| effect of a mutation on the interaction [1] | effect of a mutation on the interaction [2] | effect of a mutation on the interaction [3] | effect of a mutation on the interaction [4] | effect of a mutation on the interaction [5] | Variant |
| --- | --- | --- | --- | --- | --- |
| disrupting interaction | decreasing interaction |  |  |  | E329N |
| disrupting interaction | decreasing interaction |  |  |  | D326N |
|  |  |  | disrupting interaction | decreasing interaction | E331N |
